Laboratory results published in patent US11433099B2, “Immunotherapy with B*08 restricted peptides and combination of peptides against cancers and related methods” (Immatics Biotechnologies GmbH, priority 2018, dated 2022).
Values belong to the substance of their own block, whether it stands above or below them.

Legend:
[1] = system: CD8+ T cells of healthy HLA-B*08 donors; experiment: In vitro T-cell priming assay with aAPCs loaded with peptide/MHC complexes and anti-CD28 antibody, pMHC multimer readout; type: cell-based, human; settings: in vitro immunogenicity
Source text: In order to obtain information regarding the immunogenicity of the TUMAPs of the present invention, the inventors performed investigations using an in vitro T-cell priming assay based on repeated stimulations of CD8+ T cells with artificial antigen presenting cells (aAPCs) loaded with peptide/MHC complexes and anti-CD28 antibody.
In order to perform in vitro stimulations by artificial antigen presenting cells loaded with peptide-MHC complex (pMHC) and anti-CD28 antibody, the inventors first isolated CD8+ T cells from fresh HLA-B*08 leukapheresis products via positive selection using CD8 microbeads (Miltenyi Biotec, Bergisch-Gladbach, Germany) of healthy donors obtained from the University clinics Mannheim, Germany, after informed consent.
PBMCs and isolated CD8+ lymphocytes were incubated in T-cell medium (TCM) until use consisting of RPMI-Glutamax (Invitrogen, Karlsruhe, Germany) supplemented with 10% heat inactivated human AB serum (PAN-Biotech, Aidenbach, Germany), 100 U/ml Penicillin/100 μg/ml Streptomycin (Cambrex, Cologne, Germany), 1 mM sodium pyruvate (CC Pro, Oberdorla, Germany), 20 μg/ml Gentamycin (Cambrex). 2.5 ng/ml IL-7 (PromoCell, Heidelberg, Germany) and 10 U/ml IL-2 (Novartis Pharma, Nornberg, Germany) were also added to the TCM at this step.
Generation of pMHC/anti-CD28 coated beads, T-cell stimulations and readout was performed in a highly defined in vitro system using four different pMHC molecules per stimulation condition and 8 different pMHC molecules per readout condition.
The purified co-stimulatory mouse IgG2a anti human CD28 Ab 9.3 (Jung et al., 1987) was chemically biotinylated using Sulfo-N-hydroxysuccinimidobiotin as recommended by the manufacturer (Perbio, Bonn, Germany). Beads used were 5.6 μm diameter streptavidin coated polystyrene particles (Bangs Laboratories, Illinois, USA).
800.000 beads/200 μl were coated in 96-well plates in the presence of 4×12.5 ng different biotin-pMHC, washed and 600 ng biotin anti-CD28 were added subsequently in a volume of 200 μl. Stimulations were initiated in 96-well plates by co-incubating 1×10^6 CD8+ T cells with 2×10^5 washed coated beads in 200 μl TCM supplemented with 5 ng/ml IL-12 (PromoCell) for 3 days at 37° C. Half of the medium was then exchanged by fresh TCM supplemented with 80 U/ml IL-2 and incubating was continued for 4 days at 37° C. This stimulation cycle was performed for a total of three times. For the pMHC multimer readout using 8 different pMHC molecules per condition, a two-dimensional combinatorial coding approach was used as previously described (Andersen et al., 2012) with minor modifications encompassing coupling to 5 different fluorochromes. Finally, multimeric analyses were performed by staining the cells with Live/dead near IR dye (Invitrogen, Karlsruhe, Germany), CD8-FITC antibody clone SK1 (BD, Heidelberg, Germany) and fluorescent pMHC multimers. For analysis, a BD LSRII SORP cytometer equipped with appropriate lasers and filters was used. Peptide specific cells were calculated as percentage of total CD8+ cells. Evaluation of multimeric analysis was done using the FlowJo software (Tree Star, Oregon, USA). In vitro priming of specific multimer+CD8+ lymphocytes was detected by comparing to negative control stimulations.

HLA-B*08:01 = HLA-B*08:01 (Homo sapiens, UniProt P01889); experiment: MHC binding assay (UV-ligand exchange, beta2m ELISA); settings: MHC class I binding score; binding to HLA-B*08:01 ranged by peptide exchange yield (UV-ligand exchange, β2m ELISA)
Outline: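 Peptide–HLA complexes generated by UV-ligand exchange of a UV-cleavable peptide for the test peptide; exchange yield read by β2m ELISA on streptavidin capture (samples diluted 100-fold, 1 h 37 °C), HRP anti-β2m, TMB, A450. Quantified against refolded HLA-A*02:01/MLA-001 monomer standards (15-500 ng/ml).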

[2] = HLA class I peptides, Table 10B
[3] = Table 10A, HLA-B*08 pMHC, healthy donors

Substance: 49 (FLRVFTDSL; listed as Homo sapiens) [compound 49]
- Wells positive [%] [1, 2]: + (<20% = +)
- Peptide exchange (HLA-B*08:01): +++ (50% = +++)

Substance: 285 (EAMLRNKEL; listed as Homo sapiens) [compound 285]
- Wells positive [%] [1, 3]: + (<20% = +)

Substance: 22 (EVRLKPIL; listed as Homo sapiens) [compound 22]
- Wells positive [%] [1, 2]: + (<20% = +)
- Peptide exchange (HLA-B*08:01): ++ (20% = ++)

Substance: 45 (RLKVALSTL; listed as Homo sapiens) [compound 45]
- Wells positive [%] [1, 2]: + (<20% = +)
- Peptide exchange (HLA-B*08:01): +++ (50% = +++)

Substance: 89 (VPYTKVQL; listed as Homo sapiens) [compound 89]
- Wells positive [%] [1, 2]: + (<20% = +)
- Peptide exchange (HLA-B*08:01): +++ (50% = +++)

Substance: 18 (LSLVRKAL; listed as Homo sapiens) [compound 18]
- Wells positive [%] [1, 2]: ++ (20%-49% = ++)
- Peptide exchange (HLA-B*08:01): +++ (50% = +++)

Substance: 38 (EVYQKIIL; listed as Homo sapiens) [compound 38]
- Wells positive [%] [1, 2]: ++++ (>=70% = ++++)
- Peptide exchange (HLA-B*08:01): +++ (50% = +++)

Substance: 58 (LPKKMKLL; listed as Homo sapiens) [compound 58]
- Wells positive [%] [1, 2]: ++ (20%-49% = ++)
- Peptide exchange (HLA-B*08:01): ++ (20% = ++)

Substance: 63 (YVKRKTNVL; listed as Homo sapiens) [compound 63]
- Wells positive [%] [1, 2]: + (<20% = +)
- Peptide exchange (HLA-B*08:01): ++ (20% = ++)

Substance: 35 (ELFQRPVL; listed as Homo sapiens) [compound 35]
- Wells positive [%] [1, 2]: + (<20% = +)
- Peptide exchange (HLA-B*08:01): ++ (20% = ++)

Substance: 284 (ELKKKEYEEL; listed as Homo sapiens) [compound 284]
- Wells positive [%] [1, 3]: + (<20% = +)

Substance: 31 (SPRVKWTF; listed as Homo sapiens) [compound 31]
- Wells positive [%] [1, 2]: ++++ (>=70% = ++++)
- Peptide exchange (HLA-B*08:01): ++ (20% = ++)

Substance: 9 (LLKGKPRAL; listed as Homo sapiens) [compound 9]
- Wells positive [%] [1, 2]: + (<20% = +)
- Peptide exchange (HLA-B*08:01): ++ (20% = ++)

Substance: 286 (ILLPRTVSL; listed as Homo sapiens) [compound 286]
- Wells positive [%] [1, 3]: + (<20% = +)

Substance: 283 (MAQFKEISL; listed as Homo sapiens) [compound 283]
- Wells positive [%] [1, 3]: ++++ (>=70% = ++++)

Substance: 130 (LPAPYQHQL; listed as Homo sapiens) [compound 130]
- Peptide exchange (HLA-B*08:01): ++ (20% = ++)

Substance: 184 (DRLKPLKM; listed as Homo sapiens) [compound 184]
- Peptide exchange (HLA-B*08:01): ++ (20% = ++)

Substance: 164 (LPAPIPTLL; listed as Homo sapiens) [compound 164]
- Peptide exchange (HLA-B*08:01): ++ (20% = ++)

Substance: 39 (DAKSKIEQI; listed as Homo sapiens) [compound 39]
- Peptide exchange (HLA-B*08:01): ++ (20% = ++)

Substance: 145 (MIYRKALRL; listed as Homo sapiens) [compound 145]
- Peptide exchange (HLA-B*08:01): ++ (20% = ++)

Substance: 226 (DIYEVAVSL; listed as Homo sapiens) [compound 226]
- Peptide exchange (HLA-B*08:01): +++ (50% = +++)

Substance: 278 (RAQLKLVAL; listed as Homo sapiens) [compound 278]
- Wells positive [%] [1, 3]: + (<20% = +)

Substance: 240 (KVIDRKVEL; listed as Homo sapiens) [compound 240]
- Peptide exchange (HLA-B*08:01): ++ (20% = ++)

Substance: 209 (SRFGKFVQL; listed as Homo sapiens) [compound 209]
- Peptide exchange (HLA-B*08:01): ++ (20% = ++)

Substance: 194 (RAIEHVLQV; listed as Homo sapiens) [compound 194]
- Peptide exchange (HLA-B*08:01): +++ (50% = +++)

Substance: 163 (EVMAQFKEI; listed as Homo sapiens) [compound 163]
- Peptide exchange (HLA-B*08:01): ++ (20% = ++)

Substance: 90 (TIGLGLHSL; listed as Homo sapiens) [compound 90]
- Peptide exchange (HLA-B*08:01): ++ (20% = ++)

Substance: 12 (DFYLRSSAF; listed as Homo sapiens) [compound 12]
- Peptide exchange (HLA-B*08:01): +++ (50% = +++)

Substance: 6 (NRQKRFVL; listed as Homo sapiens) [compound 6]
- Peptide exchange (HLA-B*08:01): ++ (20% = ++)

More lines, main results first:

- Peptide exchange (HLA-B*08:01): ++ (20% = ++)
Substance: 48 (ELALRQTV; listed as Homo sapiens) [compound 48]
- Wells positive [%] [1, 2]: + (<20% = +)

- Peptide exchange (HLA-B*08:01): +++ (50% = +++)
Substance: 75 (YARLKNVLL; listed as Homo sapiens) [compound 75]
- Wells positive [%] [1, 2]: +++ (50%-69%= +++)

- Peptide exchange (HLA-B*08:01): ++ (20% = ++)
Substance: 37 (EAFSRASL; listed as Homo sapiens) [compound 37]
- Wells positive [%] [1, 2]: ++ (20%-49% = ++)

- Peptide exchange (HLA-B*08:01): ++ (20% = ++)
Substance: 82 (SIRKRPML; listed as Homo sapiens) [compound 82]
- Wells positive [%] [1, 2]: + (<20% = +)

- Peptide exchange (HLA-B*08:01): +++ (50% = +++)
Substance: 10 (MGKFKQCF; listed as Homo sapiens) [compound 10]
- Wells positive [%] [1, 2]: ++++ (>=70% = ++++)

- Peptide exchange (HLA-B*08:01): ++ (20% = ++)
Substance: 34 (IYRKKYIL; listed as Homo sapiens) [compound 34]
- Wells positive [%] [1, 2]: + (<20% = +)

- Peptide exchange (HLA-B*08:01): +++ (50% = +++)
Substance: 68 (DLKIPRYPV; listed as Homo sapiens) [compound 68]
- Wells positive [%] [1, 2]: +++ (50%-69%= +++)

- Peptide exchange (HLA-B*08:01): ++ (20% = ++)
Substance: 1 (ALKLKVAEL; listed as Homo sapiens) [compound 1]
- Wells positive [%] [1, 2]: ++ (20%-49% = ++)

- Peptide exchange (HLA-B*08:01): ++ (20% = ++)
Substance: 78 (DGHMKVFSL; listed as Homo sapiens) [compound 78]
- Wells positive [%] [1, 2]: ++ (20%-49% = ++)

- Peptide exchange (HLA-B*08:01): +++ (50% = +++)
Substance: 11 (MAPLKMLAL; listed as Homo sapiens) [compound 11]
- Wells positive [%] [1, 2]: +++ (50%-69%= +++)

- Peptide exchange (HLA-B*08:01): +++ (50% = +++)
Substance: 19 (FTLLRRLSL; listed as Homo sapiens) [compound 19]
- Wells positive [%] [1, 2]: ++++ (>=70% = ++++)

- Peptide exchange (HLA-B*08:01): ++ (20% = ++)
Substance: 40 (ESMLKTTL; listed as Homo sapiens) [compound 40]
- Wells positive [%] [1, 2]: + (<20% = +)

- Peptide exchange (HLA-B*08:01): ++ (20% = ++)
Substance: 13 (EPFTRPVL; listed as Homo sapiens) [compound 13]
- Wells positive [%] [1, 2]: + (<20% = +)

- Peptide exchange (HLA-B*08:01): +++ (50% = +++)
Substance: 33 (WIGLRNLDL; listed as Homo sapiens) [compound 33]
- Wells positive [%] [1, 2]: + (<20% = +)

- Peptide exchange (HLA-B*08:01): +++ (50% = +++)
Substance: 3 (SIQSRYISM; listed as Homo sapiens) [compound 3]
- Wells positive [%] [1, 2]: ++ (20%-49% = ++)

- Peptide exchange (HLA-B*08:01): +++ (50% = +++)
Substance: 5 (STMPKILAL; listed as Homo sapiens) [compound 5]
- Wells positive [%] [1, 2]: + (<20% = +)

- Peptide exchange (HLA-B*08:01): +++ (50% = +++)
Substance: 20 (ILKRFLAC; listed as Homo sapiens) [compound 20]
- Wells positive [%] [1, 2]: + (<20% = +)

- Peptide exchange (HLA-B*08:01): ++ (20% = ++)
Substance: 25 (HLHPKGREL; listed as Homo sapiens) [compound 25]
- Wells positive [%] [1, 2]: ++ (20%-49% = ++)

- Peptide exchange (HLA-B*08:01): ++ (20% = ++)
Substance: 105 (APLKMLALV; listed as Homo sapiens) [compound 105]

- Peptide exchange (HLA-B*08:01): ++ (20% = ++)
Substance: 26 (DARCKLAEL; listed as Homo sapiens) [compound 26]

- Peptide exchange (HLA-B*08:01): ++ (20% = ++)
Substance: 116 (FTQNPRVQL; listed as Homo sapiens) [compound 116]

- Peptide exchange (HLA-B*08:01): ++ (20% = ++)
Substance: 168 (HVQDFTAF; listed as Homo sapiens) [compound 168]

- Peptide exchange (HLA-B*08:01): ++ (20% = ++)
Substance: 189 (APDNVLLTL; listed as Homo sapiens) [compound 189]

- Peptide exchange (HLA-B*08:01): ++ (20% = ++)
Substance: 106 (HLHLLETSI; listed as Homo sapiens) [compound 106]
